The results in this text go back to publication PMC11410209.

For the test, the target named is 2526 IgG3. Briefly: ELISA. As to conditions: read off a plot.

As for “H1 NC99 trimer, wild type HA (Fig 5A) (from UniProt Q6WG00) N23T”, the response (parent: est. 4.0) was 2.8 Abs (450nm).

Regarding WT-NTD N61A, the response is 2.7 Abs (450nm).

Consider WT-NTD N149A, for which the response was 1 Abs (450nm).

Turning to WT-NTD N165A, the response is 2.7 Abs (450nm).

For the substance WT-NTD N234A, the response was 1.7 Abs (450nm).
